Assay results from PMC8612281, “Aromatic Dimer Dehydrogenases from Novosphingobium aromaticivorans Reduce Monoaromatic Diketones” (Applied and Environmental Microbiology, 2021).

B1: LigD (Novosphingobium aromaticivorans DSM 12444) (protein)
chain: MQSFENEIAFITGGASGAGFGQAQVFGRAGAKIVVADVRAEAVERAVAALKAEGIVAHGLVLDITDRQAYAGAADEVEQVFGAAPTLLFNTAGVNSFGPVEDTSYDDFDWIVGVNLGGVINGMVTFVPRMIASGRPGHIVTTSSLGGLMGSALAAPYSAAKAAVINLMESYRQGLDKHGIGVSVLCPANIKSNIAEASRLRPAQFGKSGYVENEESIASLHSIHQHGMDPVELAEHVKAGIVANQLYIIPYPEAKDGLRQHFDAIVDAVLPLEADPEGARARTEALNAWAADRARVFMEKNAAQKA
B2: LigN (Novosphingobium aromaticivorans DSM 12444) (protein)
chain: MQNLPGKTAFVTGGASGIGLGIAKALLGAGMNVTIADIRQDHLDSAVAELGGGERVLAVKLDVTNRDQFAKAADATEAKFGKIHLLVNNAGVAVVGPTELATFADWDWVMGVNVNGTINGIVTILPRILAHGEGGHIVCTASMSALVPVAGTTIYSAGKAAVTAMMECMRPELEGRGVICSAFCPGAVQSNIADAAKTRPAELADTGYAEADKRRAAGGNFMHLYQTKEQVGERVLEGILNDELYILTHAEFLTGVEERGLATTAAVQTHLPENPEYKETFAALFRNPAITDEIARQNKLKETRKAGVEA
B3: LigL (Novosphingobium aromaticivorans DSM 12444) (protein)
chain: MGIETFAGRTAFVTGGASGIGLGIVKALARRDAFVVIADMRTDHISRALKALASAGLGESVAAVELDVTDRAAYASMARRMDEEFGGIDVLVNNAGVGVEGPILQATYPDWDFGLGVNLGGVVNGLQAMLPQMIAHGRGGHVVNTASLAATVVMPGHLAIYAAGKAAVLNLTENMRADLAGRGIGSSVLCPGFVRSNIHEAARNRPAHLREGSGFAASEQALSMRETGSEWMDPDAVGEMVADAILADQLYVITHGEFANRMRERAEALLAATPVCEMQF

Legend:
Assay in all cases: purified protein
purified protein [1] = substrate: COc1cc(C(=O)C(C)=O)ccc1O; assay type: biochemical, Novosphingobium aromaticivorans; details: 0.1 mM NADH, 25 mM Tris-HCl pH 8, 25 mM NaCl, reduction of Cα ketone
purified protein [2] = substrate: COc1cc(C(O)C(CO)Oc2ccccc2OC)ccc1O; details: 0.1 mM NAD+, 0.1 μM enzyme, 25 mM Tris-HCl pH 8, 25 mM NaCl, oxidation
purified protein [3] = substrate: COc1cc(C(O)C(C)O)ccc1O; assay type: biochemical, Novosphingobium aromaticivorans; details: 0.1 mM NAD+, 0.1 μM enzyme, 25 mM Tris-HCl pH 8, 25 mM NaCl, oxidation

Row | Protein | Km (purified protein [1]; 0.1 μM enzyme) [µM] | kcat (purified protein [1]; 0.1 μM enzyme) [s⁻¹] | Km (purified protein [2]) [µM] | kcat (purified protein [2]) [s⁻¹] | Km (purified protein [3]) [µM] | kcat (purified protein [3]) [s⁻¹] | Km (purified protein [1]; 0.01 μM enzyme) [µM] | kcat (purified protein [1]; 0.01 μM enzyme) [s⁻¹]
1 | B1 | 410 | 0.02 | 70 | 0.2 | – | – | – | –
2 | B2 | 310 | 0.1 | 80 | 0.30 | – | – | – | –
3 | B3 | – | – | 440 | 0.12 | 1530 | 0.03 | 3400 | 1.44
